Experimental data reported in the MegaScale stability set (Tsuboyama et al. 2023).

B1: EEHEE_rd4_0003 (parent)
chain: KKVTINGVEIKFNNPEEAVKFALELAKRLNLRIEFHGDQIKIE

Variants of: B1
Experiment: folding stability dG (cDNA display proteolysis); higher = more stable
Details: PBS, room temperature

Variant	folding stability dG [kcal/mol]
KKVTINGVEIKFNNPEEAVKYALELAKRLNLRIEFHGDQIKIE [F21Y]	2.49
KKVTINGVEIKFNNPEEAVKWALELAKRLNLRIEFHGDQIKIE [F21W]	2.81
KKVTINGVEIKFNNPEEAVKVALELAKRLNLRIEFHGDQIKIE [F21V]	1.74
KKVTINGVEIKFNNPEEAVKFAEELAKRLNLRIEFHGDQIKIE [L23E]	2.12
KKVTINGVEIKFNNPEEAVKFADELAKRLNLRIEFHGDQIKIE [L23D]	1.47
KKVTINGVEIKFNNPEEAVKFACELAKRLNLRIEFHGDQIKIE [L23C]	3.18
KKVTINGVEIKFNNPEEAVKFAMELAKRLNLRIEFHGDQIKIE [L23M]	2.52
KKVTINGVEIKFNNPEEAVKFANELAKRLNLRIEFHGDQIKIE [L23N]	1.95
KKVTINGVEIKFNNPEEAVKFAVELAKRLNLRIEFHGDQIKIE [L23V]	2.29
KKVTINGVEIKFNNPEEAVKFAPELAKRLNLRIEFHGDQIKIE [L23P]	0.007
KKVTINGVEIKFNNPEEAVKFARELAKRLNLRIEFHGDQIKIE [L23R]	2.19
KKVTINGVEIKFNNPEEAVKFAYELAKRLNLRIEFHGDQIKIE [L23Y]	2.43
KKVTINGVEIKFNNPEEAVKFAQELAKRLNLRIEFHGDQIKIE [L23Q]	2.13
KKVTINGVEIKFNNPEEAVKFAAELAKRLNLRIEFHGDQIKIE [L23A]	1.91
KKVTINGVEIKFNNPEEAVKFAKELAKRLNLRIEFHGDQIKIE [L23K]	2.17
KKVTINGVEIKFNNPEEAVKFASELAKRLNLRIEFHGDQIKIE [L23S]	1.88
KKVTINGVEIKFNNPEEAVKFAGELAKRLNLRIEFHGDQIKIE [L23G]	1.43
KKVTINGVEIKFNNPEEAVKFATELAKRLNLRIEFHGDQIKIE [L23T]	2.29
KKVTINGVEIKFNNPEEAVKFAIELAKRLNLRIEFHGDQIKIE [L23I]	2.57
KKVTINGVEIKFNNPEEAVKFAFELAKRLNLRIEFHGDQIKIE [L23F]	2.46

Variant	folding stability dG [kcal/mol]
KKVTINGVEIKFNNPEEAVKFAHELAKRLNLRIEFHGDQIKIE [L23H]	1.95
KKVTINGVEIKFNNPEEAVKFAWELAKRLNLRIEFHGDQIKIE [L23W]	2.35
KKVTINGVEIKFNNPEEAVKFALSLAKRLNLRIEFHGDQIKIE [E24S]	2.49
KKVTINGVEIKFNNPEEAVKFALMLAKRLNLRIEFHGDQIKIE [E24M]	2.73
KKVTINGVEIKFNNPEEAVKFALPLAKRLNLRIEFHGDQIKIE [E24P]	1.47
KKVTINGVEIKFNNPEEAVKFALCLAKRLNLRIEFHGDQIKIE [E24C]	4.19
KKVTINGVEIKFNNPEEAVKFALALAKRLNLRIEFHGDQIKIE [E24A]	2.88
KKVTINGVEIKFNNPEEAVKFALKLAKRLNLRIEFHGDQIKIE [E24K]	2.4
KKVTINGVEIKFNNPEEAVKFALDLAKRLNLRIEFHGDQIKIE [E24D]	2.46
KKVTINGVEIKFNNPEEAVKFALVLAKRLNLRIEFHGDQIKIE [E24V]	2.35
KKVTINGVEIKFNNPEEAVKFALWLAKRLNLRIEFHGDQIKIE [E24W]	3.15
KKVTINGVEIKFNNPEEAVKFALGLAKRLNLRIEFHGDQIKIE [E24G]	2.28
KKVTINGVEIKFNNPEEAVKFALHLAKRLNLRIEFHGDQIKIE [E24H]	2.23
KKVTINGVEIKFNNPEEAVKFALILAKRLNLRIEFHGDQIKIE [E24I]	2.49
KKVTINGVEIKFNNPEEAVKFALTLAKRLNLRIEFHGDQIKIE [E24T]	2.43
KKVTINGVEIKFNNPEEAVKFALNLAKRLNLRIEFHGDQIKIE [E24N]	2.35
KKVTINGVEIKFNNPEEAVKFALRLAKRLNLRIEFHGDQIKIE [E24R]	2.55
KKVTINGVEIKFNNPEEAVKFALQLAKRLNLRIEFHGDQIKIE [E24Q]	2.57
KKVTINGVEIKFNNPEEAVKFALLLAKRLNLRIEFHGDQIKIE [E24L]	2.66
KKVTINGVEIKFNNPEEAVKFALFLAKRLNLRIEFHGDQIKIE [E24F]	2.58

Variant	folding stability dG [kcal/mol]
KKVTINGVEIKFNNPEEAVKFGLELAKRLNLRIEFHGDQIKIE [A22G]	1.58
KKVTINGVEIKFNNPEEAVKFPLELAKRLNLRIEFHGDQIKIE [A22P]	0.416
KKVTINGVEIKFNNPEEAVKFNLELAKRLNLRIEFHGDQIKIE [A22N]	0.81
KKVTINGVEIKFNNPEEAVKFYLELAKRLNLRIEFHGDQIKIE [A22Y]	2.39
KKVTINGVEIKFNNPEEAVKFELELAKRLNLRIEFHGDQIKIE [A22E]	0.979
KKVTINGVEIKFNNPEEAVKFHLELAKRLNLRIEFHGDQIKIE [A22H]	1.32
KKVTINGVEIKFNNPEEAVKFRLELAKRLNLRIEFHGDQIKIE [A22R]	1.16
KKVTINGVEIKFNNPEEAVKFQLELAKRLNLRIEFHGDQIKIE [A22Q]	1.22
KKVTINGVEIKFNNPEEAVKFSLELAKRLNLRIEFHGDQIKIE [A22S]	1.59
KKVTINGVEIKFNNPEEAVKFCLELAKRLNLRIEFHGDQIKIE [A22C]	2.79
KKVTINGVEIKFNNPEEAVKFWLELAKRLNLRIEFHGDQIKIE [A22W]	2.68
KKVTINGVEIKFNNPEEAVKFKLELAKRLNLRIEFHGDQIKIE [A22K]	1.21
KKVTINGVEIKFNNPEEAVKFMLELAKRLNLRIEFHGDQIKIE [A22M]	2.59
KKVTINGVEIKFNNPEEAVKFILELAKRLNLRIEFHGDQIKIE [A22I]	3.21
KKVTINGVEIKFNNPEEAVKFFLELAKRLNLRIEFHGDQIKIE [A22F]	2.74
KKVTINGVEIKFNNPEEAVKFDLELAKRLNLRIEFHGDQIKIE [A22D]	0.407
KKVTINGVEIKFNNPEEAVKFVLELAKRLNLRIEFHGDQIKIE [A22V]	2.74
KKVTINGVEIKFNNPEEAVKFTLELAKRLNLRIEFHGDQIKIE [A22T]	2
KKVTINGVEIKFNNPEEAVKFLLELAKRLNLRIEFHGDQIKIE [A22L]	2.98
